Assay results as given in US20190248860A1 (Stanford University, published 2019).
Where a chain is given by its changes, count along the chain named.

Tests used:
[1] = biological target: T1, biotinylated IL-2Rβ ectodomain (C-terminal biotin acceptor peptide and hexahistidine tag) (UniProt P14784 27-240, C-terminally biotinylated on the biotin acceptor peptide (coexpressed BirA ligase)); test: yeast display screen, labeling with 5 nM IL-2Rβ and then SAV-PE
T1 construct: range 1-214; Yeast staining reagent; in the second generation screen used as monomer, then detected with SAV-PE; also called tetrameric IL-2Rβ; monomeric IL-2Rβ
T1 sequence: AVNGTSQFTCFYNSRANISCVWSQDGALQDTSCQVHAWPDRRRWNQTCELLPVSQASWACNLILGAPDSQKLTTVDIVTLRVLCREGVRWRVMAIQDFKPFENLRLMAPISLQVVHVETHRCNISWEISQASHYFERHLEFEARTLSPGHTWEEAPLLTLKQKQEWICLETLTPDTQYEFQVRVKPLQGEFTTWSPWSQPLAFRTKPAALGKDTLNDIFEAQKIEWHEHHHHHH
Protocol: Upon conclusion of selections, round four and round five yeast cultures were spread on SD-CAA plates, which yielded individual yeast colonies. 48 individual yeast clones from both rounds were grown in 96-well block format and screened by labeling with 5 nM IL-2Rβ and then SAV-PE.

[2] = biological target: T2, IL-2Rβ ectodomain (amino acids 1-214), recombinant (UniProt P14784 27-240); test: surface plasmon resonance
T2 construct: range 1-214; Used for the SPR and crystal entries; also called IL-2R13; interleukin 2 receptor beta
T2 sequence: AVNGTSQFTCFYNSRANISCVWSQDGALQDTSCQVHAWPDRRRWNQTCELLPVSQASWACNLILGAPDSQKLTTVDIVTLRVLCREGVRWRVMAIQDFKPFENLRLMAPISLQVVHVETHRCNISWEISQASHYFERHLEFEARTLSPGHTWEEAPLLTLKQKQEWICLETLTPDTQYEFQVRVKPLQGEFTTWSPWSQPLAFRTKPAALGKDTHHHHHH

[3] = biological target: T2, IL-2Rβ ectodomain (amino acids 1-214), …; test: method not given; SPR according to Example 10
[4] = biological target: T2, IL-2Rβ ectodomain (amino acids 1-214), …; test: SPR affinities, as told in the structural discussion

B1: yeast-displayed IL-2 mutein C5 (ligand)
chain: APTSSSTKKTQLQLEHLLLDLQMILNGINNYKNPKLTRMLTFKFYMPKKATELKHLQCLEEELKHLEEVLNLANSKNFHVTPRDVVSNINVFVLELKGSETTFMCEYADETATIVEFLNRWITFCQSIISTLT
notes: Clone of the second generation yeast display library; also called C5 (yeast clone); not shown: yeast surface display fusion partner and linker encoded by vector pCT302
- binding result [1]: binds

B2: IL-2 mutein C5 (ligand)
chain: APTSSSTKKTQLQLEHLLLDLQMILNGINNYKNPKLTRMLTFKFYMPKKATELKHLQCLEEELKHLEEVLNLANSKNFHVTPRDVVSNINVFVLELKGSETTFMCEYADETATIVEFLNRWITFCQSIISTLTHHHHHH
- koff [2]: 0.016 s⁻¹
- Kd [3]: 10 nM

B3: IL-2 mutein D10 (ligand)
chain: B2 chain with H65P, N74H, V80F, T81D
notes: also called IL-2 D10; super-2
- fold affinity gain from wild-type IL-2 [4]: ~300 fold
